In patent publication US20250264433A1:

Biological target: peptide #49+50 (combined sequences of EspB peptides #49 and #50) (Enteropathogenic Escherichia coli (EPEC))
Assay: ELISA, plate coated with peptide #49+50, serially diluted mAb, anti-human IgG-HRP

B1: mAb-EspB-B7 (antibody, V domains shown)
VH: EVQLLESGGGLVQPGGSLRLSCAASGFTFSHYAMNWVRQAPGKGLEWVSAINSNGDSTYYPDTVKDRFTISRDNSKNTLYLQMNSLRAEDTAVYYCARDRRAGYFDYWGQGTLVTVSS
VL: DIVLTQPPSASGTPGQRVTISCSGSRDNIGKNYVSWYQQLPGTAPKLLIYRNNQRPSGVPDRFSGSKSGTSASLAISGLRSEDEADYYCSAWDTSLNAYVFGPGTQLTVL
EC50 (read off the curve): 0.4 µg/mL
